Key:
sh3g2_rat Sh3gl2 = sh3g2_rat Sh3gl2 (UniProt O35179)
amph_rat Amph = amph_rat Amph (UniProt O08838)
grb2_human GRB2 = grb2_human GRB2 (UniProt P62993)
sh3g1_rat Sh3gl1 = sh3g1_rat Sh3gl1 (UniProt O35964)

Measured: effect of a mutation on the interaction

SLIT-ROBO Rho GTPase-activating protein 3 (Homo sapiens), O43295 P1056A;P1059A, sequence (O43295 whole entry P1056A/P1059A): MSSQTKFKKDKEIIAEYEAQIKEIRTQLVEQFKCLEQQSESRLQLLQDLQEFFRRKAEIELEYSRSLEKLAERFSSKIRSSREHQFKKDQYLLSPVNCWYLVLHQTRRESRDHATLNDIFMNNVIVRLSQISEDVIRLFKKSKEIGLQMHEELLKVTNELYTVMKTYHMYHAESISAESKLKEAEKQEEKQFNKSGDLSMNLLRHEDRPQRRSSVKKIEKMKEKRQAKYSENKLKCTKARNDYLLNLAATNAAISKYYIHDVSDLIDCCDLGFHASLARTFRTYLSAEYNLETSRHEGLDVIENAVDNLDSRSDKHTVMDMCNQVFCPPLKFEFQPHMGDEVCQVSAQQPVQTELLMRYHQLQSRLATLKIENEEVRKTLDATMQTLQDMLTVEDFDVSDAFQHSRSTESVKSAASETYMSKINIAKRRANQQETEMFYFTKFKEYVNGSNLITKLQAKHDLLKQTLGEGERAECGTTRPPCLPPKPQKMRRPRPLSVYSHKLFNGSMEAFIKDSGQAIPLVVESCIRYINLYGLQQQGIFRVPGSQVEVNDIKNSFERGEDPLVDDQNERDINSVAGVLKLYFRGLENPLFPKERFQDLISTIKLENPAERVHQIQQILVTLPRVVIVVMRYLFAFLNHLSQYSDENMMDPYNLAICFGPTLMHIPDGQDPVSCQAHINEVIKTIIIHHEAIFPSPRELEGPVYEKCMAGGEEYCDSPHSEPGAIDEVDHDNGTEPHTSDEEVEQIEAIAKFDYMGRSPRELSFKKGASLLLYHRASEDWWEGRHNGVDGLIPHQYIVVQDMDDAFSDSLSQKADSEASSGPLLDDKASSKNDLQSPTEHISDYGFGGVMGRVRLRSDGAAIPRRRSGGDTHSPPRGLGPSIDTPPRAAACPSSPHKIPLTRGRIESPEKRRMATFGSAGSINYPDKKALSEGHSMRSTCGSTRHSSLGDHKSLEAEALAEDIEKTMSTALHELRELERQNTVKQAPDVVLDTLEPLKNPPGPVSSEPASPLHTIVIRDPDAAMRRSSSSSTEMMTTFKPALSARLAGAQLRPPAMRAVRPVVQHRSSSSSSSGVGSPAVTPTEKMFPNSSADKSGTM
amph_rat Amph, sequence (O08838 whole entry): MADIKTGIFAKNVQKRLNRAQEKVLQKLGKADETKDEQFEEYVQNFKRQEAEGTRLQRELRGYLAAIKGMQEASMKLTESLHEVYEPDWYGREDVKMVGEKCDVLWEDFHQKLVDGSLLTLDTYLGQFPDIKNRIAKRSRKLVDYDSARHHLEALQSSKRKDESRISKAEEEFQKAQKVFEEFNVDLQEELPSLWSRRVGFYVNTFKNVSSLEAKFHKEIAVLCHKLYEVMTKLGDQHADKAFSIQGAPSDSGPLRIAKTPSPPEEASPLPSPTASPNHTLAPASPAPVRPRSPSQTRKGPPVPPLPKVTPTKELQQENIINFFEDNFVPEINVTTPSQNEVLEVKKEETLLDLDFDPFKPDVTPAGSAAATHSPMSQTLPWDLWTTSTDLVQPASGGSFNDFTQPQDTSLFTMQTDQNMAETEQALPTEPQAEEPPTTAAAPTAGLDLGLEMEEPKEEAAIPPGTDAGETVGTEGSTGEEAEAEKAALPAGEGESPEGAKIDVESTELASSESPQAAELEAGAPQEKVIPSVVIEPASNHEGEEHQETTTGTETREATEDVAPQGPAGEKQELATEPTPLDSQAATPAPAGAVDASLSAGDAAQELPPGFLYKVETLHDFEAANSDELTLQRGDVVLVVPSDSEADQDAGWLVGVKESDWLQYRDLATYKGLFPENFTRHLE
sh3g1_rat Sh3gl1, sequence (O35964 whole entry): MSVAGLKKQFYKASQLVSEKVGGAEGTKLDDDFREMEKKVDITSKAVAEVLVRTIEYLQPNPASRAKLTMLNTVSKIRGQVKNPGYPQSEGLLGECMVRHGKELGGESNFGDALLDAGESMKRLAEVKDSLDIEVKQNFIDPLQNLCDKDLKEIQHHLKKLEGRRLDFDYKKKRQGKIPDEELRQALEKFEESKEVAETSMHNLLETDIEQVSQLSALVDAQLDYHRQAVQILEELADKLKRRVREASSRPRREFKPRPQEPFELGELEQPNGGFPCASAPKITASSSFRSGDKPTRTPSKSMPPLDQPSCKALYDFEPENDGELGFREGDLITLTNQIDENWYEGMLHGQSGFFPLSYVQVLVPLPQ
grb2_human GRB2, sequence (P62993 whole entry, looked up): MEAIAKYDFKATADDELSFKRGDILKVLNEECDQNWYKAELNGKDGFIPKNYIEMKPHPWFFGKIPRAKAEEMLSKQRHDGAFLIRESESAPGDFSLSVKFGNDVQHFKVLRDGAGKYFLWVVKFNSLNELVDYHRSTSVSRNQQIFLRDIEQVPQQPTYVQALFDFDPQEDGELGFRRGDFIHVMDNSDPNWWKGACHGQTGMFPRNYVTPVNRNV
sh3g2_rat Sh3gl2, sequence (O35179 whole entry): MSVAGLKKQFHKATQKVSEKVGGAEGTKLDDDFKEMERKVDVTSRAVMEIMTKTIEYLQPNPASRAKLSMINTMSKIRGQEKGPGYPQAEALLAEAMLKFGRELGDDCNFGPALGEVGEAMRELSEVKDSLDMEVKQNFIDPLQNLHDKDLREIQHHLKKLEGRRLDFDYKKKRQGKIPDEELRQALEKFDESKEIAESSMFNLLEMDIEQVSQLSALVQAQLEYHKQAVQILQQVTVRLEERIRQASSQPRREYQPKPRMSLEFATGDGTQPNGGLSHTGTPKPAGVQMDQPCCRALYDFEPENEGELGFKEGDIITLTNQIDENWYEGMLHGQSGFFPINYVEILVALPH

SLIT-ROBO Rho GTPase-activating protein 3 (Homo sapiens), O43295 P1056A;P1059A
disrupting interaction: all assays above
